Results from paper PMC1260013 (BMC Biochemistry, 2005).
Where “and” joins values, the source holds several entries; their conditions need not be identical. Equal values may be shown once.

B1: Mycobacterium tuberculosis isocitrate dehydrogenase ICD-1 (Rv3339c) (enzyme)
chain: MSNAPKIKVSGPVVELDGDEMTRVIWKLIKDMLILPYLDIRLDYYDLGIEHRDATDDQVTIDAAYAIKKHGVGVKCATITPDEARVEEFNLKKMWLSPNGTIRNILGGTIFREPIVISNVPRLVPGWTKPIVIGRHAFGDQYRATNFKVDQPGTVTLTFTPADGSAPIVHEMVSIPEDGGVVLGMYNFKESIRDFARASFSYGLNAKWPVYLSTKNTILKAYDGMFKDEFERVYEEEFKAQFEAAGLTYEHRLIDDMVAACLKWEGGYVWACKNYDGDVQSDTVAQGYGSLGLMTSVLMTADGKTVEAEAAHGTVTRHYRQYQAGKPTSTNPIASIFAWTRGLQHRGKLDGTPEVIDFAHKLESVVIATVESGKMTKDLAILIGPEQDWLNSEEFLDAIADNLEKELAN
notes: also called M.tb ICD-1; M. tb ICD-1
B2: Mycobacterium tuberculosis isocitrate dehydrogenase ICD-2 (Rv0066c) (enzyme)
chain: MSAEQPTIIYTLTDEAPLLATYAFLPIVRAFAEPAGIKIEASDISVAARILAEFPDYLTEEQRVPDNLAELGRLTQLPDTNIIKLPNISASVPQLVAAIKELQDKGYAVPDYPADPKTDQEKAIKERYARCLGSAVNPVLRQGNSDRRAPKAVKEYARKHPHSMGEWSMASRTHVAHMRHGDFYAGEKSMTLDRARNVRMELLAKSGKTIVLKPEVPLDDGDVIDSMFMSKKALCDFYEEQMQDAFETGVMFSLHVKATMMKVSHPIVFGHAVRIFYKDAFAKHQELFDDLGVNVNNGLSDLYSKIESLPASQRDEIIEDLHRCHEHRPELAMVDSARGISNFHSPSDVIVDASMPAMIRAGGKMYGADGKLKDTKAVNPESTFSRIYQEIINFCKTNGQFDPTTMGTVPNVGLMAQQAEEYGSHDKTFEIPEDGVANIVDVATGEVLLTENVEAGDIWRMCIVKDAPIRDWVKLAVTRARISGMPVLFWLDPYRPHENELIKKVKTYLKDHDTEGLDIQIMSQVRSMRYTCERLVRGLDTIAATGNILRDYLTDLFPILELGTSAKMLSVVPLMAGGGMYETGAGGSAPKHVKQLVEENHLRWDSLGEFLALGAGFEDIGIKTGNERAKLLGKTLDAAIGKLLDNDKSPSRKTGELDNRGSQFYLAMYWAQELAAQTDDQQLAEHFASLADVLTKNEDVIVRELTEVQGEPVDIGGYYAPDSDMTTAVMRPSKTFNAALEAVQG
notes: also called M.tb ICD-2; M. tb ICD-2

Columns and labels:
[1] = target: the molecule itself; test: SEC; Superdex-200 HR 10/30, room temperature, 2.4 mg/ml recombinant ICD-1, calibrated with molecular-mass standards
[2] = target: the molecule itself; test: SEC; Superose 6 10/300 GL, room temperature, concentrated ICD-2 (~400 ug; 1.06 mg/ml), high salt (1 M NaCl)
[3] = target: the molecule itself; test: SEC; Superose 6 10/300 GL, room temperature, concentrated ICD-2 (~400 ug; 1.06 mg/ml), low salt (100 mM NaCl)
SEC = target: the molecule itself; test: SEC

| Protein | stoichiometry N [1] | stoichiometry N [2] | stoichiometry N [3] | stoichiometry N (SEC) |
| --- | --- | --- | --- | --- |
| B1 | 4 and 2 |  |  |  |
| B2 |  | 2 | 4 | 3 |
